T1: extracellular domain of human CD79b (huCD79becd) (human, UniProt P40259 29-159)
T1 construct: expressed in CHO cells
T1 sequence: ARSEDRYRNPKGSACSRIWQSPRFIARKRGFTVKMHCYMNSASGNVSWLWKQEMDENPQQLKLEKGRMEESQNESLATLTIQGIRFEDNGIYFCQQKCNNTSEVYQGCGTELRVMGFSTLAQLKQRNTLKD

T2: human CD79b (human, UniProt P40259 29-229)
T2 construct: endogenous CD79b on B-cell lines (BJAB, BJAB-luciferase, DoHH-2); also called PRO36249; CD79b expressed on the surface of BJAB-luciferase cells
T2 sequence: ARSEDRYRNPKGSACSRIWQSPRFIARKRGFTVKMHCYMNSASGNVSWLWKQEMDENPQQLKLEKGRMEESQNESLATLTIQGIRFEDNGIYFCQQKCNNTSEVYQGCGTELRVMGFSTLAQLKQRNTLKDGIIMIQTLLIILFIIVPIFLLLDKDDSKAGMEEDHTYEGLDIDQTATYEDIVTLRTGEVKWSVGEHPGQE


Key:
[1] = target: T1, extracellular domain of human CD79b …; assay: Biacore (SPR), IgG
Protocol: Binding of Fab and IgG variants of MA79b, the MA79b-grafted “humanized” antibody or MA79b-grafted “humanized” antibody variants to immobilized huCD79becd or huCD79b-Fc or the 16 amino acid peptide containing the epitope for MA79b was measured by surface plasma resonance. Affinity determinations were performed by surface plasmon resonance using a BIAcore™-2000. The antigen, huCD79becd or huCD79b-Fc was immobilized (approximately 50-200 RU) in 10 mM sodium acetate pH 4.8 on a CM5 sensor chip. Due to a large avidity effect, affinity measurements were sensitive to the amount of huCD79becd immobilized. For this reason, affinities, determined for samples run on different days, were normalized to MA79b that was run along side as a standard. In experiments that measured binding to the 16 amino acid peptide containing the epitope for MA79b ([…]) (SEQ ID NO: 16), the biotinylated peptide was captured (approximately 20 RU) on a streptavidin coated sensor chip. Purified MA79b-grafted “humanized” antibody variant (as Fab or IgG) (a 2-fold serial dilution of 0.5 to 1000 nM in PBST) was injected at a flow rate of 30 μL/min. Each sample was analyzed with 4-minute association and 10-minute disassociation. After each injection the chip was regenerated using 10 mM Glycine pH 1.7. […]

human CD79b [2] = target: T2, human CD79b; assay: FACS on BJAB-luciferase cells
Protocol: The binding affinity of thio huMA79b.v18, thio huMA79b.v28 drug conjugates and thio MA79b drug conjugates to CD79b expressed on BJAB-luciferase cells was determined by FACS analysis. Further, the binding affinity of thio anti-cynoCD79b(ch10D10) drug conjugates to CD79b expressed on BJAB cells expressing cynoCD79b was determined by FACS analysis.
Briefly, approximately 1×10⁶ cells in 100 μl were contacted with varying amounts (1.0 μg, 01. μg or 0.01 μg of Ab per million cells of BJAB-luciferase cells or BJAB cells expressing cynoCD79b (for anti-cynoCD79b thioMAbs)) of one of the following anti-CD79b thioMAb drug conjugates or naked (unconjugated Ab as a control): (1) thio MA79b-LC(V205C)-MC-MMAF or (2) thio MA79b-HC(A118C)-MC-MMAF (FIGS. 29A-B, respectively); (3) thio huMA79b.v18-HC(A118C)-MC-MMAF, (4) thio huMA79b.v18-HC(A118C)-MC-vcPAB-MMAE or (5) thio huMA79b.v18-HC(A118C)-BMPEO-DM1 (FIGS. 30B-D, respectively); (6) thio huMA79b.v28-HC(A118C)-MCvcPAB-MMAE, (7) thio huMA79b.v28-HC(A118C)-BMPEO-DM1, or (8) thio huMA79b.v28-HC(A118C)-MC-MMAF (see FIGS. 31B-31D, respectively); or (9) thio anti-cynoCDb79(ch10D10)-HC(A118C)-MCvcPAB-MMAE, (10) thio anti-cynoCD79b(ch10D10)-HC(A118C)-BMPEO-DM1 or (11) thio anti-cynoCD79b(ch10D10)-HC(A118C)-MC-MMAF (see FIGS. 32B-32D, respectively). PE conjugated mouse anti-human Ig was used as the secondary detecting antibody (BD Cat#555787).

human CD79b [3] = target: T2, human CD79b; assay: Scatchard analysis on BJAB cells stably expressing cynomolgus CD79b and endogenous human CD79b
[4] = target: T1, extracellular domain of human CD79b …; assay: phage selection, Fab on phage
Protocol: For phage selection, the extracellular domain of CD79b (huCD79becd) (2 μg/ml) was immobilized in PBS on MaxiSorp microtiter plates (Nunc) overnight at 4° C. Plates were blocked for at least 1 h using Casein Blocker (Pierce). Phage were harvested from the culture supernatant and suspended in PBS containing 0.5% BSA and 0.05% Tween 20 (PBSBT). Following addition of the phage library and phage selection for 2 h, microtiter wells were washed extensively with PBS containing 0.05% Tween 20 (PBST) to remove unbound phage and bound phage were eluted by incubating the wells with 100 mM HCl for 30 min. Selection stringency may be increased during successive rounds of selection by increasing the number of washes with PBST or by incubating with soluble huCD79becd for increasing time periods prior to elution.

Row | Binder | binding result (human CD79b [2]) | further results
1 | MA79b-grafted humanized antibody variant 18 (huMA79b.v18) (antibody, human IgG1, kappa, IgG) light: DIQLTQSPSSLSASVGDRVTITCKASQSVDYDGDSFLNWYQQKPGKAPKLLIYAASNLESGVPSRFSGSGSGTDFTLTISSLQPEDFATYYCQQSNEDPLTFGQGTKVEIKRTVAAPSVFIFPPSDEQLKSGTASVVCLLNNFYPREAKVQWKVDNALQSGNSQESVTEQDSKDSTYSLSSTLTLSKADYEKHKVYACEVTHQGLSSPVTKSFNRGEC heavy: not shown |  | fold improvement in dimeric binding compared to variant 17 [1]: 2 fold
2 | thio huMA79b.v28-HC(A118C)-BMPEO-DM1 (antibody, human IgG1, kappa, BMPEO-DM1 on the engineered Cys at EU position 118 (sequential position 118; Kabat position 114), TDC) light: DIQLTQSPSSLSASVGDRVTITCKASQSVDYEGDSFLNWYQQKPGKAPKLLIYAASNLESGVPSRFSGSGSGTDFTLTISSLQPEDFATYYCQQSNEDPLTFGQGTKVEIKRTVAAPSVFIFPPSDEQLKSGTASVVCLLNNFYPREAKVQWKVDNALQSGNSQESVTEQDSKDSTYSLSSTLTLSKADYEKHKVYACEVTHQGLSSPVTKSFNRGEC heavy: not shown | binds | 
3 | thio huMA79b.v28-HC(A118C)-MCvcPAB-MMAE (antibody, human IgG1, kappa, MC-val-cit-PAB-MMAE on the engineered Cys at EU position 118 (sequential position 118; Kabat position 114), TDC; also called thio huMA79b.v28-HC(A118C)-MC-val-cit-PAB-MMAE) light: DIQLTQSPSSLSASVGDRVTITCKASQSVDYEGDSFLNWYQQKPGKAPKLLIYAASNLESGVPSRFSGSGSGTDFTLTISSLQPEDFATYYCQQSNEDPLTFGQGTKVEIKRTVAAPSVFIFPPSDEQLKSGTASVVCLLNNFYPREAKVQWKVDNALQSGNSQESVTEQDSKDSTYSLSSTLTLSKADYEKHKVYACEVTHQGLSSPVTKSFNRGEC heavy: not shown | binds | 
4 | thio huMA79b.v28-HC(A118C)-MC-MMAF (antibody, human IgG1, kappa, MC-MMAF on the engineered Cys at EU position 118 (sequential position 118; Kabat position 114), TDC) light: DIQLTQSPSSLSASVGDRVTITCKASQSVDYEGDSFLNWYQQKPGKAPKLLIYAASNLESGVPSRFSGSGSGTDFTLTISSLQPEDFATYYCQQSNEDPLTFGQGTKVEIKRTVAAPSVFIFPPSDEQLKSGTASVVCLLNNFYPREAKVQWKVDNALQSGNSQESVTEQDSKDSTYSLSSTLTLSKADYEKHKVYACEVTHQGLSSPVTKSFNRGEC heavy: not shown | binds | 
5 | thio huMA79b.v18-HC(A118C)-BMPEO-DM1 (antibody, human IgG1, kappa, BMPEO-DM1 on the engineered Cys at EU position 118 (sequential position 118; Kabat position 114), TDC; also called huMA79b.v18-HC(A118C) thioMAb-BMPEO-DM1) light: DIQLTQSPSSLSASVGDRVTITCKASQSVDYDGDSFLNWYQQKPGKAPKLLIYAASNLESGVPSRFSGSGSGTDFTLTISSLQPEDFATYYCQQSNEDPLTFGQGTKVEIKRTVAAPSVFIFPPSDEQLKSGTASVVCLLNNFYPREAKVQWKVDNALQSGNSQESVTEQDSKDSTYSLSSTLTLSKADYEKHKVYACEVTHQGLSSPVTKSFNRGEC heavy: not shown | binds | 
6 | thio huMA79b.v18-HC(A118C)-MCvcPAB-MMAE (antibody, human IgG1, kappa, MC-val-cit-PAB-MMAE on the engineered Cys at EU position 118 (sequential position 118; Kabat position 114), TDC) light: DIQLTQSPSSLSASVGDRVTITCKASQSVDYDGDSFLNWYQQKPGKAPKLLIYAASNLESGVPSRFSGSGSGTDFTLTISSLQPEDFATYYCQQSNEDPLTFGQGTKVEIKRTVAAPSVFIFPPSDEQLKSGTASVVCLLNNFYPREAKVQWKVDNALQSGNSQESVTEQDSKDSTYSLSSTLTLSKADYEKHKVYACEVTHQGLSSPVTKSFNRGEC heavy: not shown | binds | 
7 | MA79b-grafted humanized antibody variant 28 (huMA79b.v28) (antibody, human IgG1, kappa, IgG) light: DIQLTQSPSSLSASVGDRVTITCKASQSVDYEGDSFLNWYQQKPGKAPKLLIYAASNLESGVPSRFSGSGSGTDFTLTISSLQPEDFATYYCQQSNEDPLTFGQGTKVEIKRTVAAPSVFIFPPSDEQLKSGTASVVCLLNNFYPREAKVQWKVDNALQSGNSQESVTEQDSKDSTYSLSSTLTLSKADYEKHKVYACEVTHQGLSSPVTKSFNRGEC heavy: not shown |  | Kd (human CD79b [3]): 0.44 nM
8 | thio huMA79b.v18-HC(A118C)-MC-MMAF (antibody, human IgG1, kappa, MC-MMAF on the engineered Cys at EU position 118 (sequential position 118; Kabat position 114), TDC) light: DIQLTQSPSSLSASVGDRVTITCKASQSVDYDGDSFLNWYQQKPGKAPKLLIYAASNLESGVPSRFSGSGSGTDFTLTISSLQPEDFATYYCQQSNEDPLTFGQGTKVEIKRTVAAPSVFIFPPSDEQLKSGTASVVCLLNNFYPREAKVQWKVDNALQSGNSQESVTEQDSKDSTYSLSSTLTLSKADYEKHKVYACEVTHQGLSSPVTKSFNRGEC heavy: not shown | binds | 
9 | MA79b-grafted humanized antibody variant 32 (huMA79b.v32) (antibody, human IgG1, kappa, V domains shown, IgG) VH: EVQLVESGGGLVQPGGSLRLSCAASGYTFSSYWIEWVRQAPGKGLEWIGEILPGGGDTNYNEIFKGRATFSADTSKNTAYLQMNSLRAEDTAVYYCTRRVPIRLDYWGQGTLVTVSS VL: DIQLTQSPSSLSASVGDRVTITCKASQSVDYSGDSFLNWYQQKPGKAPKLFIYAASNLESGVPSRFSGSGSGTDFTLTISSLQPEDFATYYCQQSNEDPLTFGQGTKVEIKR |  | Kd (human CD79b [3]): 0.24 nM
10 | huMA79b graft variant with HVR-L3 of SEQ ID NO: 21 (Fab, name in Kabat numbering, V domains shown, Fab on phage) VH: EVQLVESGGGLVQPGGSLRLSCAASGYTFSSYWIEWVRQAPGKGLEWVGEILPGGGDTNYNEIFKGRFTISADTSKNTAYLQMNSLRAEDTAVYYCTRRVPVYFDYWGQGTLVTVSS VL: DIQMTQSPSSLSASVGDRVTITCKASQSVDYDGDSFLNWYQQKPGKAPKLLIYAASNLESGVPSRFSGSGSGTDFTLTISSLQPEDFATYYCQQSNKDPLTFGQGTKVEIKR |  | binding result [4]: binds
11 | huMA79b graft variant with HVR-H1 of SEQ ID NO: 57 (huMA79b H1-6) (Fab, V domains shown, Fab on phage; also called H1-6 mutation) VH: EVQLVESGGGLVQPGGSLRLSCAASGYPFTRYWINWVRQAPGKGLEWVGEILPGGGDTNYNEIFKGRFTISADTSKNTAYLQMNSLRAEDTAVYYCTRRVPVYFDYWGQGTLVTVSS VL: DIQMTQSPSSLSASVGDRVTITCKASQSVDYDGDSFLNWYQQKPGKAPKLLIYAASNLESGVPSRFSGSGSGTDFTLTISSLQPEDFATYYCQQSNEDPLTFGQGTKVEIK |  | binding result [4]: binds

From patent US20140335107A1 (published 2014)
